Assay results as given in US20200262920A1 (AMPHIVENA THERAPEUTICS, published 2020).
Changes are numbered by the printed parent chain. Several values for one entry are separate records, joined by “and”; a condition that tells them apart may be missing. Equal values may be shown once. Blank lines part the entries; values can stand above or below the binder they belong to.

Tests used:
[1] = target: T1, human CD33 (human, UniProt P20138 18-364); test: flow cytometry, HL-60 cells
T1 construct: whole, on cells; also called huCD33; CD33 on HL-60, KG-1, KG-1a, U-937 cells
T1 sequence (P20138 18-364): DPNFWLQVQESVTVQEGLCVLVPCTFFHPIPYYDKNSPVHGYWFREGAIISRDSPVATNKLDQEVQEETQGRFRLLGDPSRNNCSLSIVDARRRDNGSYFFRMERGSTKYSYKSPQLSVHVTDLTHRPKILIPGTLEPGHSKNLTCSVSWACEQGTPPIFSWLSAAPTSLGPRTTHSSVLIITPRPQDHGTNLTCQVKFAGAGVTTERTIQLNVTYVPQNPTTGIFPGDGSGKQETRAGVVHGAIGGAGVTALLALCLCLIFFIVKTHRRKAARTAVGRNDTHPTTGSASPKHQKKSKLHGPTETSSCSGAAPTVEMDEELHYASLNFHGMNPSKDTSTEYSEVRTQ

[2] = target: T2, human CD3 (human, UniProt P07766 23-207; P09693 23-182; P04234 22-171; P20963 22-164); test: flow cytometry titration, T cells (human CD3+)
T2 construct: whole, on cells; the description names the epsilon chain only 'in certain instances'; also called hu CD3; CD3 on T cells
T2 sequence (P07766 23-207, chain 1 of 4): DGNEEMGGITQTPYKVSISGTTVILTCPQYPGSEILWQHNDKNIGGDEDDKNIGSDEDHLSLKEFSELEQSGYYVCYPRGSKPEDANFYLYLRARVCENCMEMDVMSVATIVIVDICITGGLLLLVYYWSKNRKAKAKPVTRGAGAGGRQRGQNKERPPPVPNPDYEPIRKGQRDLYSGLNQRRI
T2 sequence (P09693 23-182, chain 2 of 4): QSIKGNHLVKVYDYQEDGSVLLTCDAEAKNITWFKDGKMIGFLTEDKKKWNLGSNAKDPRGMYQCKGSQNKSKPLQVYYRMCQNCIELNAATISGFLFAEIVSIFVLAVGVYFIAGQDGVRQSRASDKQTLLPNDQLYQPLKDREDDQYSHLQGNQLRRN
T2 sequence (P04234 22-171, chain 3 of 4): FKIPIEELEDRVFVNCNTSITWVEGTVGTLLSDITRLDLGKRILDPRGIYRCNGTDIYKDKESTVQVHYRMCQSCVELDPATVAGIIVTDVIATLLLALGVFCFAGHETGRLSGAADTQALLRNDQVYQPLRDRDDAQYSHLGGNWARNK
T2 sequence (P20963 22-164, chain 4 of 4): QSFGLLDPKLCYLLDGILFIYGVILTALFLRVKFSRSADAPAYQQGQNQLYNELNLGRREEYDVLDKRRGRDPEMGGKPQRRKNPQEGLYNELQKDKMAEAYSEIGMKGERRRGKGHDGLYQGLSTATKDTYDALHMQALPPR

[3] = target: T1, human CD33; test: cell-based or functional assay
[4] = target: T2, human CD3; test: flow cytometry, human T-cells
[5] = target: T2, human CD3; test: cell-based or functional assay
[6] = target: T1, human CD33; test: flow cytometry titration, U-937 cells
Protocol: (§1) Cells were incubated with 100 μL of serial dilutions of CD33/CD3 2×2 T-cell engagers. After washing three times with FACS buffer the cells were incubated with 0.1 mL of 10 μg/mL mouse monoclonal anti-His antibody in the same buffer for 45 min on ice. After a second washing cycle, the cells were incubated with 0.1 mL of 15 μg/mL FITC-conjugated goat anti-mouse IgG antibodies under the same conditions as before. As a control, cells were incubated with the anti-His IgG followed by the FITC-conjugated goat anti-mouse IgG antibodies without anti-CD33 2×2 T-cell engagers. The cells were then washed again and resuspended in 0.2 mL of FACS buffer containing 2 μg/mL propidium iodide (PI) in order to exclude dead cells. The fluorescence of 1×10⁴ living cells was measured using a Beckman-Coulter FC500 MPL flow cytometer using the MXP software (Beckman-Coulter, Krefeld, Germany) or a Millipore Guava EasyCyte flow cytometer using the Incyte software (Merck Millipore, Schwalbach, Germany). Mean fluorescence intensities of the cell samples were calculated using CXP software (Beckman-Coulter, Krefeld, Germany) or Incyte software (Merck Millipore, Schwalbach, Germany). After subtracting the fluorescence intensity values of the cells stained with the secondary and tertiary reagents alone the values were used for calculation of the KD values with the equation for one-site binding (hyperbola) of the GraphPad Prism (version 6.00 for Windows, GraphPad Software, La Jolla Calif. USA). […]

[7] = target: T1, human CD33; test: flow cytometry titration, HL-60 cells
Protocol: as §1

[8] = target: T1, human CD33; test: flow cytometry titration, KG-1 cells
Protocol: as §1

[9] = target: T1, human CD33; test: cell-based or functional assay; remark: listed apart in the source
[10] = target: T3, cynomolgus CD33 (cynomolgus, UniProt A0A7N9ICR5 17-359); test: ratio of KD by flow cytometry on CHO cells expressing cynomolgus CD33 vs human CD33
T3 construct: whole, on cells; also called cynoCD33; cyno CD33
Protocol: Cells were incubated with 100 μL of serial dilutions of CD33/CD3 2×2 T-cell engagers. After washing three times with FACS buffer the cells were incubated with 0.1 mL of 10 μg/mL mouse monoclonal anti-His antibody in the same buffer for 45 min on ice. After a second washing cycle, the cells were incubated with 0.1 mL of 15 μg/mL FITC-conjugated goat anti-mouse IgG antibodies under the same conditions as before. As a control, cells were incubated with the anti-His IgG followed by the FITC-conjugated goat anti-mouse IgG antibodies without anti-CD33 2×2 T-cell engagers. The cells were then washed again and resuspended in 0.2 mL of FACS buffer containing 2 μg/mL propidium iodide (PI) in order to exclude dead cells. The fluorescence of 1×10⁴ living cells was measured using a Beckman-Coulter FC500 MPL flow cytometer using the MXP software (Beckman-Coulter, Krefeld, Germany) or a Millipore Guava EasyCyte flow cytometer using the Incyte software (Merck Millipore, Schwalbach, Germany). Mean fluorescence intensities of the cell samples were calculated using CXP software (Beckman-Coulter, Krefeld, Germany) or Incyte software (Merck Millipore, Schwalbach, Germany). After subtracting the fluorescence intensity values of the cells stained with the secondary and tertiary reagents alone the values were used for calculation of the KD values with the equation for one-site binding (hyperbola) of the GraphPad Prism (version 6.00 for Windows, GraphPad Software, La Jolla Calif. USA).
CD3 binding affinity and crossreactivity were evaluated in titration and flow cytometric experiments on CD3⁺ Jurkat cells (provided by Dr. Moldenhauer, DKFZ Heidelberg; human acute T-cell leukemia) and the cynomolgus CD3⁺ HSC-F cell line (JCRB, cat.:JCRB 1164). […] The KD ratio of crossreactivity was calculated using the KD values determined on the CHO cell lines expressing either recombinant human or recombinant cynomolgus antigens.

B1: CD33/CD3 2×2 T-cell engager 11 (bispecific antibody)
chain: DIQMTQSPSSLSASVGDRVTITCRSSTGAVTTSNYANWVQQKPGKAPKGLIGGTNKRAPGVPSRFSGSLIGDKATLTISSLQPEDFATYYCALWYSNLWVFGQGTKVEIKGGSGGSQVQLVQSGAEVKKPGASVKVSCKASGYTFTSYDINWVRQAPGQGLEWMGWMNPNSGNTGFAQKFQGRVTMTRDTSTSTVYMELSSLRSEDTAVYYCARDRANTDYSLGMDVWGQGTLVTVSSGGSGQSVLTQPPSASGTPGQRVTISCSGSRSNIGSNTVNWYQQLPGTAPKLLIYGNNQRPSGVPDRFSGSKSGTSASLAISGLQSEDEADYYCATWDDSLIGWVFGGGTKLTVLGGSGGSEVQLVESGGGLVQPGGSLRLSCAASGFTFSTYAMNWVRQAPGKGLEWVGRIRSKYNNYATYYADSVKDRFTISRDDSKNSLYLQMNSLKTEDTAVYYCARHGNFGNSYVSWFAYWGQGTLVTVSSAAAGSHHHHHH
notes: Non-covalent homodimer
Kd [1]: 0.3 nM | Kd [2]: 2.6 nM | EC50 on HL-60 (cytotoxicity) [3]: 0.0059 nM | Kd [4]: 2.6 nM | CD25 Induction EC50 [5]: 0.011 nM | CD69 Induction EC50 [5]: 0.005 nM | T cell Proliferation in PBMC EC50 [5]: 0.006 nM | Kd [6]: 0.6 nM | Kd [7]: 0.3 nM | Kd [8]: 0.5 nM

B4: CD33/CD3 2×2 T-cell engager 14 (bispecific antibody)
chain: B1 chain with G49A, Y221F, L223Y, W469Y
notes: Non-covalent homodimer
Kd [1]: 0.3 nM | EC50, cytotoxicity on HL-60 [9]: 1.6 pM and 168 pg/mL | EC50, cytotoxicity on KG-1 [9]: 2.6 pM and 273 pg/mL | EC50, cytotoxicity on U-937 [9]: 3.6 pM and 378 pg/mL | EC50, cytotoxicity, mean of HL-60, U-937, KG-1 [9]: 2.6 pM and 273 pg/mL | Kd [2]: 2.1 nM | EC50 on HL-60 (cytotoxicity) [3]: 0.0016 nM | Kd [4]: 2.1 nM | CD25 Induction EC50 [5]: 0.01 nM | CD69 Induction EC50 [5]: 0.007 nM | T cell Proliferation in PBMC EC50 [5]: 0.006 nM | Kd [6]: 1.2 nM | Kd [7]: 0.3 nM | Kd [8]: 0.3 nM

B5: CD33/CD3 2×2 T-cell engager 18 (bispecific antibody)
chain: EVQLVESGGGLVQPGGSLRLSCAASGFTFSTYAMNWVRQAPGKGLEWVGRIRSKYNNYATYYADSVKDRFTISRDDSKNSLYLQMNSLKTEDTAVYYCARHGNFGNSYVSYFAYWGQGTLVTVSSGGSGGSQSVLTQPPSVSGAPGQRVTISCTGSSSNIGAGYDVHWYQQLPGTAPKLLIYGNSNRPSGVPDRFSGSKSGTSASLAITGLQAEDEADYYCQSYDSSLSDVVFGGGTKLTVLGGSGQVQLVQSGAEVKKPGESLKISCKGSGYSFTSYWIGWVRQMPGKGLEWMGIIYPGDSDTRYSPSFQGQVTISADKSISTAYLQWSSLKASDTAMYYCARHKRGSDAFDIWGQGTTVTVSSGGSGGSDIQMTQSPSSLSASVGDRVTITCRSSTGAVTTSNYANWVQQKPGKAPKALIGGTNKRAPGVPSRFSGSLIGDKATLTISSLQPEDFATYYCALWYSNLWVFGQGTKVEIKAAAGSHHHHHH
notes: Non-covalent homodimer
Kd [2]: 1.9 nM | EC50 on HL-60 (cytotoxicity) [3]: 0.0063 nM | Kd [6]: 15.1 nM | KD ratio cynoCD33/huCD33 [10]: 3.1 | Kd [7]: 3.4 nM | Kd [8]: 16.3 nM

B6: CD33/CD3 2×2 T-cell engager 05 (bispecific antibody)
chain: DIQMTQSPSSLSASVGDRVTITCRSSTGAVTTSNYANWVQQKPGKAPKGLIGGTNKRAPGVPARFSGSGSGTDFTLTISSLQPEDFATYYCALWYSNLWVFGQGTKVEIKGGSGGSQVQLVQSGAEVKKPGASVKVSCKASGYTFTSYDINWVRQAPGQGLEWMGWMNPNSGNTGFAQKFQGRVTMTRDTSTSTVYMELSSLRSEDTAVYYCARDRANTDYSFGMDVWGQGTLVTVSSGGSGGQSVLTQPPSASGTPGQRVTISCSGSRSNIGSNTVNWYQQLPGTAPKLLIYGNNQRPSGVPDRFSGSKSGTSASLAISGLQSEDEADYYCATWDDSLIGWVFGGGTKLTVLGGSGGSEVQLVESGGGLVQPGGSLRLSCAASGFTFSTYAMNWVRQAPGKGLEWVGRIRSKYNNYATYYADSVKDRFTISRDDSKNSLYLQMNSLKTEDTAVYYCARHGNFGNSYVSWFAYWGQGTLVTVSSAAAGSHHHHHH
notes: Non-covalent homodimer; also called 2×2 T-cell engager 5
Kd [1]: 1 nM | Kd [2]: 69.5 nM | EC50 on HL-60 (cytotoxicity) [3]: 0.0027 nM | Kd [4]: 69.5 nM | CD25 Induction EC50 [5]: 0.116 nM | CD69 Induction EC50 [5]: 0.074 nM | T cell Proliferation in PBMC EC50 [5]: 0.074 nM | Kd [6]: 6.2 nM | Kd [7]: 1 nM | Kd [8]: 1.2 nM

Further binders by falling Kd [2], results first:

Kd [1]: 0.4 nM | Kd [2]: 86.3 nM | Kd [4]: 86.3 nM | CD25 Induction EC50 [5]: 0.039 nM | CD69 Induction EC50 [5]: 0.021 nM | T cell Proliferation in PBMC EC50 [5]: 0.048 nM | Kd [6]: 1.6 nM | Kd [7]: 0.4 nM | Kd [8]: 0.5 nM
B7: CD33/CD3 2×2 T-cell engager 06 (bispecific antibody)
chain: B6 chain with F223L
notes: Non-covalent homodimer; also called 2×2 T-cell engager 6
EC50 on HL-60 (cytotoxicity) [3]: 0.0016 nM

Kd [1]: 0.2 nM | Kd [2]: 55.7 nM | Kd [4]: 55.7 nM | CD25 Induction EC50 [5]: 0.03 nM | CD69 Induction EC50 [5]: 0.022 nM | T cell Proliferation in PBMC EC50 [5]: 0.023 nM | Kd [6]: 0.5 nM | Kd [7]: 0.2 nM | Kd [8]: 0.3 nM
B3: CD33/CD3 2×2 T-cell engager 13 (bispecific antibody)
chain: B1 chain with D72T, K73D, A74F, N218V, S222Y, L223Y
notes: Non-covalent homodimer
EC50 on HL-60 (cytotoxicity) [3]: 0.0011 nM

Kd [1]: 5.6 nM | Kd [2]: 2.3 nM | Kd [4]: 2.3 nM | CD69 Induction EC50 [5]: 0.057 nM | T cell Proliferation in PBMC EC50 [5]: 0.264 nM | Kd [6]: 39.5 nM | Kd [7]: 5.6 nM | Kd [8]: 12.4 nM
B8: CD33/CD3 2×2 T-cell engager 24 (bispecific antibody)
chain: DIQMTQSPSSLSASVGDRVTITCRSSTGAVTTSNYANWVQQKPGKAPKALIGGTNKRAPGVPSRFSGSLIGDKATLTISSLQPEDFATYYCALWYSNLWVFGQGTKVEIKGGSGGSQVQLVQSGAEVKKPGSSVKVSCKASGGTFDSYAISWVRQAPGQGLEWMGGIIPIFGSAHYSQKFQGRVTITADESTSTAYMELSSLRSEDTAVYYCAREYYYDSSEWAFDIWGQGTLVTVSSGGSGQSVLTQPPSASGTPGQRVTISCSGSSSNIGDNVVNWYQQLPGTAPKLLIYSTNKRPSGVPDRFSGSKSGSSASLAISGLQSEDEADYYCAAWDDSLSAYVFGGGTKLTVLGGSGGSEVQLVESGGGLVQPGGSLRLSCAASGFTFSTYAMNWVRQAPGKGLEWVGRIRSKYNNYATYYADSVKDRFTISRDDSKNSLYLQMNSLKTEDTAVYYCARHGNFGNSYVSYFAYWGQGTLVTVSSAAAGSHHHHHH
notes: Non-covalent homodimer
EC50 on HL-60 (cytotoxicity) [3]: 0.0096 nM

Kd [1]: 0.4 nM | Kd [2]: 1.3 nM | Kd [4]: 1.3 nM | CD25 Induction EC50 [5]: 0.006 nM | CD69 Induction EC50 [5]: 0.007 nM | T cell Proliferation in PBMC EC50 [5]: 0.007 nM | Kd [6]: 0.9 nM | Kd [7]: 0.4 nM | Kd [8]: 0.3 nM
B2: CD33/CD3 2×2 T-cell engager 15 (bispecific antibody)
chain: B1 chain with G49A, L223F, W469Y
notes: Non-covalent homodimer
EC50 on HL-60 (cytotoxicity) [3]: 0.0018 nM
